# From patent US20230220081A1 (Xencor, published 2023)
# Biological target: T1, PD-1 on SEB-stimulated human T cells (human, UniProt Q15116 25-288)
# T1 construct: whole, on cells; also called SEB-stimulated T cells
# Assay: flow cytometry on SEB-stimulated human PBMCs, APC anti-human kappa MFI on CD3-FITC+ cells
# Experimental: Binding of anti-PD-1 clone 1C11 to T cells was measured in an SEB-stimulated PBMC assay. Staphylococcal Enterotoxin B (SEB) is a superantigen that causes T cell activation and proliferation in a manner similar to that achieved by activation via the T cell receptor (TCR), including expression of checkpoint receptors such as PD-1. Human PBMCs were stimulated with […] for 3 days. Following stimulation, PBMCs were incubated with the indicated test articles at indicated concentrations at 4° C. for 30 min. PBMCs were stained with anti-CD3-FITC (UCHT1) and APC labeled antibody for human immunoglobulin κ light chain. The binding of the test articles to T cells as indicated by APC MFI on FITC+ cells is depicted in FIG. 17.
# T1 sequence (Q15116 25-288): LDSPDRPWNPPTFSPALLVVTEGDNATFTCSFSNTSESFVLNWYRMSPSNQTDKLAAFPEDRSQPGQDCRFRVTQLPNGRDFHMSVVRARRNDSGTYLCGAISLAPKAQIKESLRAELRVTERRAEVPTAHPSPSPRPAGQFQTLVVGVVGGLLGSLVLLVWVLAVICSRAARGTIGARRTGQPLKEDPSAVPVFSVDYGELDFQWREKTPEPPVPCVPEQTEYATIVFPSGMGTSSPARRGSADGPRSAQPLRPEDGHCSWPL
binder,measurement,value
"XENP21575, chimeric anti-PD-1 antibody based on the variable regions of hybridoma clone 1C11 and human IgG1 with E233P/L234V/L235A/G236del/S267K substitutions … (antibody, V domains shown, Mouse hybridoma variable regions on human IgG1 with FcγR ablation substitutions (EU numbering); also called anti-PD-1 clone 1C11) VH: QIQLVQSGPELKKPGETVKISCRASGYTFTHYGMNWVKQAPGKGLKWMGWINTYTGEPTYADDFKGRFAFSLETSASTAYLQINNLKNEDTATYFCARDYYGSSPYWGQGTTLTVSS VL: DVLMTQTPLSLPVSLGDQASISCRSSQSIVHSNGNTYLEWYLQKPGQSPKLLIYKVSNRFSGVPDRFSGSGSGTDFTLKISRVEAEDLGVYYCFQGSHVPNTFGGGTKLEIKR",binding result,binds
